Source: patent US20250034261A1 (TAIZHOU ENZE MEDICAL CENTER GROUP, published 2025)

What was measured:
HLA-G3 standard protein = target: T1, HLA-G3 standard protein (human, UniProt P17693-3 25-154); test: immunoblot of HLA-G isoform standard proteins
T1 construct: Standard protein used in immunoblotting

HLA-G4 standard protein = target: T2, HLA-G4 standard protein (human, UniProt P17693-4 25-246); test: immunoblot of HLA-G isoform standard proteins
T2 construct: Standard protein used in immunoblotting

HLA-G7 standard protein = target: T3, HLA-G7 standard protein (human, UniProt P17693-7 25-116); test: immunoblot of HLA-G isoform standard proteins
T3 construct: Standard protein used in immunoblotting

[1] = target: T4, antigenic peptide located at positions 209-226 in the heavy chain α3 domain of the HLA-G molecules … (human); test: indirect ELISA, peptide coated at 2 ug/ml; antibody stock 2.8 mg/mL
T4 construct: Synthetic peptide, coated on the ELISA plate at 2 ug/ml; also called immunogen
T4 peptide: KTHVTHHPVFDYEATLRC

[2] = target: T4, antigenic peptide located at positions …; test: indirect ELISA, peptide coated at 2 ug/ml, antibody in 2-fold dilutions from 200-fold; logistic fit, 150000×A/antibody concentration

B1: monoclonal antibody (YWHG-3) against HLA-G1, -G2, -G5 and HLA-G6 isoforms (antibody, IgG1, V domains shown)
VH: LVQLQQSGGGLVKPGGSLKLSCAASGFTFSDYNMYWVRQTPEKRLEWVATISDGGRSTFYLDSVKGRFTISRDNAKNNLYLQINNLKSEDTAIYYCVRDDYWGQGTTLTVSS
VL: DIMMTQTPLSLPVSLGDQASISCRSSQSLVHSTGNTFLNWYLQKPGQSPKLLIYKVSNRFSGVSDRFSGSGSGTDFTLKIRRVEAEDLGVYFCSQSTHVPWTFGGGTKLEIK
notes: Used biotin-labelled in the HLA-G5 ELISA and FITC-labelled in flow cytometry; also called hybridoma CCTCC NO: 202121
Question: Does B1 bind (HLA-G3 standard protein)?
Answer: no binding (tested: 1.0 ug/ml)

Question: Does B1 bind (HLA-G4 standard protein)?
Answer: no binding (tested: 1.0 ug/ml)

Question: Does B1 bind (HLA-G7 standard protein)?
Answer: no binding (tested: 1.0 ug/ml)

Question: And the “antibody dilution factor corresponding to 1/2 OD value” [1]?
Answer: 205000 fold dilution

Question: What about the Ka [2] of the same binder?
Answer: 1.1e+10 M⁻¹
